# Results taken from the supplement of paper PMC10724198.
# ± gives the standard deviation of the averaged measurements.
# System: Saccharomyces cerevisiae
# Experiment: protein stability index of tFT-peptide fusion (C-terminal peptide) (PSI (0-1 scale)); higher = more stable (slower turnover)
# Conditions: genetic background: wild type; temperature: 30 C
# 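Also: PSI is a weighted mean of sequencing reads over stability bins, variants kept only with over 10 reads, mCherry proximal and sfGFP distal, peptide attached via GGGS linker.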
row,Sequence,protein stability index
1,SVCVLGPLDGSC,0.701 ± 0.022
2,APSFSSPPVPLF,0.698 ± 0.0085
3,GPPPPATPTPPR,0.767 ± 0.075
4,EQFQLCAREVAK,0.761 ± 0.047
5,STQIRQILERKC,0.653 ± 0.051
6,LWCPLLTSFPSY,0.726 ± 0.078
7,LSPPPSLSSRPP,0.706 ± 0.064
8,TSHSSSGQAGKI,0.73 ± 0.033
9,FPRSMPSPPSSE,0.623 ± 0.035
10,VVSFGRIGGVGR,0.675 ± 0.027
11,GEQEKRFFLSPL,0.717 ± 0.021
12,SLQTHCHKGPLS,0.718 ± 0.0099
13,TCFPDLLVLPAR,0.7008 ± 0.0022
14,ELKKKYNEKKRI,0.6885 ± 0.002
15,RGVGCLIITHSL,0.608 ± 0.073
16,LVQVGDKRFNRL,0.651 ± 0.01
17,LASSSPPTRPPH,0.702 ± 0.048
18,FKKMTNVIKGNN,0.689 ± 0.016
19,AFPSISNEVVSV,0.707 ± 0.017
20,LDRDTSCYMLDF,0.718 ± 0.03
21,PPPGPRPPSRSN,0.581 ± 0.022
22,GLIATWMYKFVF,0.617 ± 0.038
23,NVGEWGTAVMSR,0.684 ± 0.034
24,RGYEGSEVQVGV,0.677 ± 0.043
25,ANGTLSGSPAPS,0.641 ± 0.021
26,VSPNSFVGRPCF,0.717 ± 0.072

row,Sequence,protein stability index
1,YCSITGIRLLVG,0.579 ± 0.023
2,VEWLQLERDPLV,0.741 ± 0.033
3,CFFGSILYLCFG,0.5331 ± 0.0045
4,SLPAPPPPPPPH,0.727 ± 0.034
5,GPGRGWQGGPKL,0.739 ± 0.023
6,GLFNIDLFRFVR,0.732 ± 0.041
7,RPRQAAAQGGAR,0.694 ± 0.036
8,VGVRCCPRLRFG,0.695 ± 0.061
9,LACWAGVLGWGG,0.732 ± 0.022
10,CGVLPTPDRHHS,0.631 ± 0.084
11,DIEFGLSTVVCH,0.5099 ± 0.0046
12,VWLGEYGVGCSV,0.655 ± 0.048
13,VLSPVFLISLFS,0.552 ± 0.016
14,FPHSPPFIPHPP,0.647 ± 0.021
15,DRLSSPYTLFCY,0.571 ± 0.037
16,LPPPPLTTLLHT,0.604 ± 0.043
17,ARVPPFPCHPTL,0.686 ± 0.03
18,GRVGGGVEPCFV,0.679 ± 0.021
19,RMINRLEKKHTK,0.771 ± 0.098
20,IARKCLTGGGVS,0.696 ± 0.065
21,PESAWLSPRCVF,0.6696 ± 0.0039
22,WGGLSRCAGVWL,0.632 ± 0.034
23,RLAVLSLPPHPT,0.6685 ± 0.0037
24,AGRVCTRGVNEI,0.786 ± 0.1
25,LSGTGTIIKARA,0.67 ± 0.14
26,CVVRSGIGFSLL,0.741 ± 0.026

row,Sequence,protein stability index
1,GCGCVVRVWSGV,0.6621 ± 0.0013
2,KTRHVGSDNQGL,0.663 ± 0.043
3,WGVGWGMVEGWR,0.701 ± 0.019
4,VVGRLERRLREQ,0.674 ± 0.017
5,QGTNKRRNKNWE,0.704 ± 0.03
6,GQKRKKKGGKEE,0.685 ± 0.065
7,GFWESLGGVGAE,0.697 ± 0.049
8,QTATIKGTLIAM,0.585 ± 0.0076
9,HFFSFLACFVDL,0.632 ± 0.054
10,GAKCLFVSGGGI,0.6804 ± 0.0047
11,VSMSACSPGGMS,0.646 ± 0.02
12,SPSSLPPVPPSP,0.6764 ± 0.0036
13,PPPHPGFHLSSP,0.673 ± 0.088
14,KRGKRTEKDKET,0.652 ± 0.071
15,FCRYSRAWKDFV,0.737 ± 0.087
16,HWCQKNKFKAIS,0.669 ± 0.033
17,KKKHIRTEKDNK,0.704 ± 0.014
18,PPLSHPRPILAP,0.5683 ± 0.0025
19,LPSSSPHPADPS,0.643 ± 0.08
20,ESFFHIKPVLYI,0.647 ± 0.058
21,SCLCIHEIFLRL,0.672 ± 0.016
22,PSVSPVRLPYLL,0.687 ± 0.035
23,MGKSLCLFTQPI,0.668 ± 0.09
24,PPSTPPPSPPTP,0.725 ± 0.072
25,GLCLFPAFSFPF,0.671 ± 0.089
26,PPPPPPLTPTFP,0.6601 ± 0.0036

row,Sequence,protein stability index
1,LSVFCALPFVAL,0.7026 ± 0.0048
2,SSHSPFSPVLLP,0.71 ± 0.017
3,RPFAPLPPPPSM,0.689 ± 0.025
4,RCIASHRLSLRT,0.682 ± 0.037
5,TISRIQTNINKK,0.742 ± 0.18
6,FKPKAGCSNFAK,0.696 ± 0.025
7,QAGSTEERFCGG,0.664 ± 0.02
8,WSTVCKIAGAID,0.706 ± 0.028
9,GTGRRRGWGVMG,0.664 ± 0.026
10,PRRYPPPSPRTS,0.704 ± 0.016
11,SPTIRPDESPVQ,0.6893 ± 0.0067
12,PLPRPPSPLPAL,0.689 ± 0.039
13,KKIKKKQTTLKR,0.665 ± 0.081
14,LPPFPRPPPPSP,0.719 ± 0.029
15,HSTPDSAAQEPG,0.673 ± 0.065
16,PSGHQAPEMQYL,0.667 ± 0.022
17,WPLSYLPLSSPP,0.701 ± 0.01
18,CPPPPPPPPSRC,0.704 ± 0.036
19,PVHPPAPHPSPP,0.663 ± 0.037
20,GLGGSKKGEQRL,0.674 ± 0.012
21,HFVAALVLLTLD,0.72 ± 0.17
22,EDVPRGWACRGR,0.747 ± 0.024
23,QKRKQKKIIQRM,0.652 ± 0.013
24,LLPPFPPSSPAF,0.708 ± 0.036
25,RCGDGLSRLTPL,0.71 ± 0.032
26,KKKTKRKQKIET,0.727 ± 0.022

row,Sequence,protein stability index
1,IPCKVCQSLIPP,0.611 ± 0.12
2,VRRRANVRVLRD,0.688 ± 0.077
3,PAPPPPARPALP,0.706 ± 0.027
4,LPVLCSRVFVSS,0.517 ± 0.023
5,RSEGEGGKGKRE,0.687 ± 0.019
6,MHATWTLRRHGH,0.523 ± 0.04
7,LIHSSCSCPWCD,0.666 ± 0.011
8,ADGLSRDKALIV,0.598 ± 0.0074
9,MSRPSLARLPAS,0.711 ± 0.011
10,RRQPPRDQGTPC,0.795 ± 0.13
11,RGGPLSSGVVLV,0.714 ± 0.049
12,GIRRSLALSAIS,0.555 ± 0.017
13,PALLRLGTGAVG,0.711 ± 0.047
14,GAVRGDRLTHTG,0.734 ± 0.028
15,PLRPRGAAPPHP,0.6842 ± 0.0026
16,KKQKKWQSNTIR,0.696 ± 0.034
17,KKTGITTNIKRW,0.741 ± 0.23
18,RLASGGSAFINL,0.78 ± 0.2
19,GCGDSLGGERRE,0.643 ± 0.1
20,FTERVVEKFVLY,0.633 ± 0.01
21,IKNQNKKKKNKK,0.689 ± 0.05
22,VFFCALCRLWLG,0.5 ± 0.029
23,SHDLASRQSAFR,0.648 ± 0.059
24,SPPWGQGSVSSK,0.729 ± 0.052
25,APRLFSPPEPPT,0.702 ± 0.038
26,PPLSPLAPPSHP,0.727 ± 0.069

row,Sequence,protein stability index
1,CASPLHPCPKST,0.6542 ± 0.0023
2,PPPPPAPTTSVP,0.6829 ± 0.002
3,QGSRRPRSVVWG,0.708 ± 0.038
4,RRNISRQNKKKR,0.76 ± 0.11
5,PPEPRPLPDAPP,0.5977 ± 0.0052
6,RKEQRTERKSQK,0.721 ± 0.066
7,GGGRCSGDGDRG,0.708 ± 0.063
8,PLPLFGPRLSPP,0.875 ± 0.065
9,CGTYFRLTRCAV,0.577 ± 0.043
10,GRVGCGRNRLWS,0.67 ± 0.053
11,ATPPSPLPPSPP,0.754 ± 0.061
12,HPPPTSQPPPGP,0.726 ± 0.05
13,RPPPALWPPPSP,0.694 ± 0.027
14,DSTVGRTLRTRR,0.617 ± 0.068
15,KRTKKKTKDERK,0.644 ± 0.044
16,RGVGWVLEVLLG,0.518 ± 0.0087
17,NEPNIRDRSIFS,0.688 ± 0.015
18,GNRVGQREEIEK,0.655 ± 0.023
19,VLLARVRRSSDS,0.649 ± 0.093
20,CPAPCPPLPPHV,0.71997 ± 0.00064
21,IVGAGVFEERWG,0.77 ± 0.023
22,GPVGPGECYDYT,0.706 ± 0.00044
23,LGVCVGFRLLWV,0.579 ± 0.026
24,IKTKREKNGVSS,0.722 ± 0.016
25,SQSFFDGVLVRV,0.673 ± 0.059
26,KREGEGLDWGEV,0.7089 ± 0.0014

row,Sequence,protein stability index
1,PPSSPALPSDTP,0.694 ± 0.013
2,RSSFCILCCLFS,0.557 ± 0.024
3,TPKETGNNNMPN,0.677 ± 0.09
4,LKKIEPRKNDKI,0.719 ± 0.025
5,RRFKIDKNKIKL,0.683 ± 0.018
6,PPPRFRLSSFPT,0.701 ± 0.021
7,EGKNEFINGTTT,0.696 ± 0.023
8,IGSHDTRVVKMD,0.731 ± 0.059
9,STRPDLLLLAES,0.6 ± 0.055
10,ALRCRPVYHIDG,0.658 ± 0.025
11,WGWVLVGVGGLV,0.576 ± 0.091
12,RGKTGLTRYIGV,0.709 ± 0.074
13,NHRANKIRKCKD,0.6298 ± 0.0016
14,HVHSLAFPPPAT,0.695 ± 0.068
15,VFCFGVRSVFLR,0.54 ± 0.053
16,LHPGPPASPPPL,0.7127 ± 0.0053
17,VGEGLGWGGQGG,0.712 ± 0.062
18,GSSCHFPARCPV,0.659 ± 0.018
19,RADGHGARFRVR,0.799 ± 0.009
20,NVTIRVAIRYHE,0.575 ± 0.021
21,NSKGKKFKCLKK,0.766 ± 0.0099
22,SPLSLPSIPFGV,0.672 ± 0.075
23,EGGWRLVWGRGG,0.7222 ± 0.0024
24,TVPESGSIGERK,0.672 ± 0.03
25,AARSCRCSSLIG,0.774 ± 0.0035
26,PGRLTTERLSFQ,0.7 ± 0.043

row,Sequence,protein stability index
1,GPVTPADASPHC,0.686 ± 0.034
2,SVGGSRSGRGGQ,0.688 ± 0.011
3,LPVCVRLSLCDV,0.6144 ± 0.004
4,LRRAPPSPPPPP,0.716 ± 0.054
5,LLPPPPPPTLYP,0.699 ± 0.016
6,CSKLYGAFANTF,0.644 ± 0.1
7,TRDTLNLMYKRL,0.703 ± 0.046
8,PPSPSPPSPPPP,0.656 ± 0.007
9,VTHNTLLRTKVV,0.518 ± 0.0069
10,GGGRWWRVGVGF,0.729 ± 0.021
11,GRVGFSRSFKCC,0.641 ± 0.14
12,PLASLPALHFSL,0.678 ± 0.025
13,LCHCLSLLFSFL,0.581 ± 0.015
14,PPPPPLPPPPPT,0.696 ± 0.087
15,YIPPGNTTVPSC,0.694 ± 0.038
16,NTRKIEAVGSER,0.658 ± 0.024
17,SNKKRTRNEGKD,0.6109 ± 0.0047
18,LEGEESISQMNE,0.664 ± 0.043
19,WGVSVVEGGRSG,0.736 ± 0.093
20,DTRRHSFCSGTG,0.697 ± 0.029
